Paper PMC2527117 (The Journal of Biological Chemistry, 2008)

Biological target: the molecule itself
Experiment: SEC

B1: PfUIS3 soluble domain (residues 83-229) (domain or fragment, Plasmodium falciparum, UniProt Q8IEU1 83-229, looked up)
chain: YYGYKKSREDDLYYNKYLEYRNGEYNIKYQDGAIASTSEFYIEPEGINKINLNKPIIENKNNVDVSIKRYNNFVDIARLSIQKHFEHLSNDQKDSHVNNMEYMQKFVQGLQENRNISLSKYQENKAVMDLKYHLQKVYANYLSQEEN
stoichiometry N: 2
